Source: PMC12462528, “Molecular basis of ParA ATPase activation by the CTPase ParB during bacterial chromosome segregation” (Nature Communications, 2025)
Residue numbers refer to the chain shown, from its start. One block for each binder: values may come before it.

Tests used:
[1] = target: the molecule itself; assay: HDX-MS; 50 µM ParA or ParA-D60A with 1 mM ATP, with or without 1 mM ParB_(1-20) and/or 1 mg/mL salmon sperm DNA; 25 °C (Datasets 1 and 2)
ParA (wild type) = target: T1, ParA (wild type) (Myxococcus xanthus DK1622, UniProt Q1CVJ3 1-283); assay: as above; conditions: both partners purified
T1 construct: ParA of Myxococcus xanthus DK1622, translation product of ORF MXAN_7477; No tag cleavage step is described; also called His6-ParA; wild-type ParA; source: E. coli Rosetta(DE3)pLysS, purified (HisTrap HP, HiTrap Q HP)
T1 sequence (looked up): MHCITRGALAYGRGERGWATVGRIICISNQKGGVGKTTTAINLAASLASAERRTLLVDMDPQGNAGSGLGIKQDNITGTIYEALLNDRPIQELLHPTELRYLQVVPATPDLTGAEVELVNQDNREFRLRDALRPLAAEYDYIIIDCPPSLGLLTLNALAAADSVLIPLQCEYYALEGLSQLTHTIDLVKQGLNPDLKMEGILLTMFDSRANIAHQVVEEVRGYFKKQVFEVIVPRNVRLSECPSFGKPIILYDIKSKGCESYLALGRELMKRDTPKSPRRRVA

His6-ParA_(21-274)-D60A = target: T2, His6-ParA_(21-274)-D60A (Myxococcus xanthus DK1622, UniProt Q1CVJ3 21-274, D60A); assay: NMR titration; 2H/13C/15N-labelled ParA_(21-274)-D60A (300 µM) titrated with unlabelled ParB_(1-20) to 1:5.8; TROSY 1H-15N HSQC, 298 K, 50 mM HEPES pH 6.8, 150 mM KCl, 5 mM MgSO4, 1 mM DTT, 1 mM ATP; conditions: both partners purified
T2 construct: For NMR the protein was 2H/13C/15N-labelled; source: E. coli Rosetta(DE3)pLysS, purified (as His6-ParA)
T2 sequence (looked up): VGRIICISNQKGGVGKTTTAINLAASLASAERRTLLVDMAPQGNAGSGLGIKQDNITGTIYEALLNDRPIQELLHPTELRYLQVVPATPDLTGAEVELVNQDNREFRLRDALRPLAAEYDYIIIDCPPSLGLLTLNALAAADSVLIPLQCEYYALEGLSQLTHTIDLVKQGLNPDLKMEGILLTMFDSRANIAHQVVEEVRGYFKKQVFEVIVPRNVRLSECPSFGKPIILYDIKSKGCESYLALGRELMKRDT

B1: ParA-D60A (natural protein, Myxococcus xanthus DK1622, UniProt Q1CVJ3 1-283, looked up)
chain: T1 sequence (looked up) with D60A
notes: ParA of Myxococcus xanthus DK1622 lacking the catalytic aspartic acid D60; also called ATPase-deficient ParA variant; source: E. coli Rosetta(DE3)pLysS, purified (as His6-ParA)
binding result [1]: binds

binding result (ParA (wild type)): binds
binding result (His6-ParA_(21-274)-D60A): binds
B2: ParB_(1-20) peptide (peptide, UniProt Q1CVJ4 1-20, looked up)
peptide: MVKADMQKRALGRGLSALIP
notes: also called N-terminal peptide of ParB; source: synthetic peptide
